Experiment: soluble on expression in E. coli; label from the status in PepcDB or PDB records

Sequence	soluble on expression in E. coli
MTKISERNIKVARKNVCKNIQRLNKKLSNKIKNEEAALPDIIAGTHGTPIEKLLTLYKLSDPIFTAIRPFTACRYGCSACCHYKVDLLPIEAELIAISLGQAPLPLPTTFQNGHGKRCPFLSKNGQCNIYSIRPMACRRHFMFTNSDYWCNPVHSEDIKIKMLGFSGIIEAYINIANQDGRYSPENIRDIRDYFTAGIDADVNARELDSELEHHHHHH	not soluble
MSNIKKYIIDYDWKASIEIEIDHDVMTEEKLHQINNFWSDSEYRLNKHGSVLNAVLIMLAQHALLIAISSDLNAYGVVCEFDWNDGNGQEGWPSMDGSEGIRITDIDTSGIFDSDDMTIKAA	soluble
MANLQNMSSSPKHTNGSSERSENCGELCVVCGDKASGRHYGAVSCEGCKGFFKRSIRKRIGYVCRSQKDCPVTKFHRNRCQYCRLRKCLSMGMRSESVQAERRPVNNSSMLCNNDNNQQNTTPEHLSPNLLLSLVKLEHETKLGGLEALIKPGSPVMLQNTQDYMDVKRESIGEDEMTVIGLVPPSASPTSSGVGSSSSISDDSGPIYTSERARFEISVPLNTQNPRNHQYISEITTRLLFLTVHFVKDSRVSLRTSTMEGLLKSKWCDLYILALMQTADKIKLGQLLDNLTNQMAMGMECGQYSAEKFEKISEQMQRLLQLSQLFASRELTAVEYAYLKMISFTAQDLPSSMASPETRSVNQMASQELFEYVSSSKSTQNHMSNEHINVDDSTSEDNDTHVTSQQSSVNIAAERFSRILQLLPCLRWFDPATIVEIFFSGLIGPMSIETIIPFVLQMNLMSFFDQKMELGSGGASDTLSTSSLSEMMNNQ	not soluble
MGSDKIHHHHHHMTPIPKTSVPKTSVPTTPEPIRTNIPTALGKCLSLCLCLLLPLTQAWAETPANADVTASDNAIIAGHEFSHDSSEFKTPRRYMVSLPEGYHGNTRHYPVLYVVDADFQFQHVSALALHLARMGKIAPMIVVGIANQGQSDYLYTTTWKSDEGEAFGGADTFYRYLAKELIPTIDKQFRTNPHKALAGYSLGGLFTLYAMTQANSPFDAYLAMSPSVWYDKMHYIELLKQRLQKSPIEAPLFLTLANEQEMGVDELVTALKGYDAQKIHWQFKQYPSENHFTTALPALNDGLLFLSPDYGLDGSDMLALGDYRAVLDYFAKRKANWAGFHIEWLQAYQFGKYLFWSKQLDKLDGILAAVKQEFPDSLTIVTVQVAKGFNVKGDGARAKALLDSVAKEGEASPYWHREMSLYYQSQGDEANAQRHQQKALALATQYRLNTWELWELQ	not soluble
MSLKAIIDNIKILEQNAINKGLDELILMENAGLNLAKLIKKEAKKIRIQRKIRKVKILFLLGGGNNASDGLVALRNLKHAKAYKIGFKENTLFKKQEQILQNYAFKFCKKEPNFKKFHIIIDCILGTGSNRCLDEKTSLIIQKVNQSKALKIACDIPTNLGFYPCFKADITFCMGALKEILLEDFAKEFVGRIKIANLGIRSKKFYPNSQAFLLEKKDLKTIDRKINANKGNFGHIYIVANASAGTLAGLGALNFGAGLVSLVAQKSFSPLLMLKEKIENNASAIALGMGLENLDFLKDEILQNTPLILDANCFLSEALLWYLNRKDVVITPHPKEFIKLYKMCFDENLDIETLQKNRFFYARKFSQNYDCVLVLKGANPIIVQKEKLFVVNLGNQALAKGGSGDVLSGMIAAHLGFGFSALEAAKNATLAHGLVAKKYKFNKNSFDALKLIKGLKCLEGHHHHHH	soluble
MTDETENVPKTEQEVPNDPESEKEVKEDAKEEVKDLIPEFYSQHGGDPRLIDIAASVWLSGIPTDFITDTYEQFCETIKNIMKMGHKLDVSTVSKIVRIPNLDSNAKNSEHALRALICFSDKKHIYRMMTREAEFAKEEMKVELIEELPSDALEISEDDKCLLLNGLVEAEDAGDDVDVGGGDDDEIDELMDHDDEGGHDEHEEDEESDVKKEEEKGSEKKEKKPEPPKKKVYEDEDEKAPFEMYWDGAPEFQWRLCEGPRDEKKLIIDNLLWADLNNVFIYRTIQKSTTCEINFPTRFNSDGNRTCHGKLTLFFPGNVAIMDEALKHLVYFRSGDGRRIKVFLPQTTVSLKRKEEFEGKLGRVIKPTERMMQLIVKILPDGYTPTLDEACAWFPLQAVIQCDLVNDEMGNPCAVVKFETAEEAVAAHAGKSFVTIVQKSMITVKDSEGNEKEEEKETETHCNVFMRGGIIMGF	not soluble
MLEDPGGRPRVYVDVREERSPVPSILESLGVQVIPKQLPMGDYLVSDSIIVERKTSSDFAKSLFDGRLFEQASRLAEHYETVFIIVEGPPVPRRYRGRERSLYAAMAALQLDYGIRLMNTMDPKGTALVIESLARLSTREGGQRIVIHKKPRLSDVREWQLYILQSFPGIGRRTAERILERFGSLERFFTASKAEISKVEGIGEKRAEEIKKILMTPYK	soluble
MQKLTVGLIGNPNSGKTTLFNQLTGARQRVGNWAGVTVERKEGIFATTDHQVTLVDLPGTYSLTTISSQTSLDEQIACHYILSGDADMLINVVDASNLERNLYLTLQLLELGIPCVVALNMLDIAEKQQVRIDIDALAARLGCPVIPLVSTRGRGIEALKIALDRHQANSDLELVHYPQPLLREADLLAQQMSAQIPPRQRRWLGLQMLEGDIYSRAYAGDAADKLDIALANLSDEIDDPALHIADARYQTIAAICDAVSNTLTAEP	soluble
MSLNASPQEDAGPEPVVYLVDDQQAELDLLQRWCSQEGLKTETFNQAEDLLKLLHADSHGCVVADLRMPRLSGLELQAEMSRRELTIPVILVTGHGDAENCRAAFQQGVFDFIEKGFRHEEILHAINSAIRKHRRDRFRHQVRKEALDLLRKISPRETEVMLLLAGGSPLKGIAQELSISVQTASKHRGSIFTKLNIDNEVDLYKMLLAAEVNLDVGEGHHHHHH	soluble
KQLLFMHSSASVESLERPYLETMPGQYAAEITLFEWLDFLLERGGVKRALKAIEYYETVGWVSADAAERLQGHVRGFSGPADDDSHSDLEMSDHVLSLVYIARLSSMQ	not soluble
MGSDKIHHHHHHMNTHKHARLTFLRRLEMVQQLIAHQVCVPEAARAYGVTAPTVRKWLGRFLAQGQAGLADASSRPTVSPRAIAPAKALAIVELRRKRLTQARIAQALGVSASTVSRVLARAGLSHLADLEPAEPVVRYEHQAPGDLLHIDIKKLGRIQRPGHRVTGNRRDTVEGAGWDFVFVAIDDHARVAFTDIHPDERFPSAVQFLKDAVAYYQRLGVTIQRLLTDNGSAFRSRAFAALCHELGIKHRFTRPYRPQTNGKAERFIQSALREWAYAHTYQNSQHRADAMKSWLHHYNWHRPHQGIGRAVPISRLNLDEYNLLTVHS	not soluble
VDRLHIIGDIFDRGPRADIIMDKLEEYHAVDIQWGNHDILWMGAASGSSVCMANVIRISARYANLSTIEDGYGINLLPLATFAMDFYGNDKCKNFEPKIESDKSYTVKEIELIGKMHKAIAIIQFKLEGEAIKRHPEFKMEHRMLLNKINFEDSTIELDGKKYKLNDTSFPTIDKNDPYKLIDEEREVVEKLRSSFVNSEKLNRHVRFLFSHGNLYLKFNSNLLYHGCIPLNEDGTFKEVLIGSHKYKGKALLDKLDVLARKSFFYEENSKNSKYENDMIWYLWSGPFSPLFGKEKMTTFERYFIDDKKTHYEKKDPYYHYRDDEDICINILREFGLDSEQAHIINGHVPVESKNGENPIKANGKLIVIDGGFSKAYQSKTGIAGYTLIYNS	not soluble
SLGNGMNKILPGLYIGNFKDARDAEQLSKNKVTHILSVHDSARPMLEGVKYLCIPAADSPSQNLTRHFKESIKFIHECRLRGESCLVHCLAGVSRSVTLVIAYIMTVTDFGWEDALHTVRAGRSCANPNVGFQRQLQEFEKHEVHQ	not soluble
MKKLMLGNEAVARGAYEAGVLVATAYPGTPSTEITEYISKYSEINSEWSVNEKVALEVGIGSAIAGARTIVSMKHVGLNVAADPLMTVAYTGINAGLLIVVADDPSMHSSQNEQDTRYYGMFAKIPVLEPSDSQECKDFVKLGFEISEKFDTPVILRLSTRVSHSQSLVELEEKESIELKPYD	not soluble
MSLGRNEPVIGITPSFDYNENKMYINNIYCEAIILSGGMPVLLPVTEDEGLLSQMVEEFDGFLLSGGPDVDAVHWGEWNYSYNGEISPHRDKMELFIAKEAVAKDKPIFGICRGIQVLNVALGGTLYQDIYSQNKEKRLIKHSQNAPRWYPVHKVMLKAGSKVRNAHGAESIAVNSFHHQAVREPAPDFIVTGTSEDGIIEAIEHKNCKFAVGVQWHPEHMWKRDLSFLNIFKYFVSSCLEGHHHHHH	soluble
MSSAAQAYARTAQRTASPREIEAQALLKAAKQLQDVVTNWEEKGAIGLQEALLFNRKLWSIFVTEAMRDDNPQSIEIRQNIANIGVFVMSQSSALQIKPEVERLQALIDINRNIAAGLSGRP	not soluble
SLTPDSTAGSLHIDCPTGLAGDMLLAALLDLGVPLEVIKAPLARLGLKDMVRLDVEETRSGGLRGRRLNVVGLEPDPPHRHWAEIRDRLQNSSLEPKLLQTVLAVFTALAEAEATVHAQTPESVHFHEVGAIDALVDVVGVCAAIHHLAPHRISCAPPPAGHGSVTTAHGLLPVPVPAVLELARAHQVPLRHDPSLPEGELTTPTGLALVSVLAERFTAPPLFTPSAIGIGLGHRRLDRPNLVRLCLGQGESATLDLEARWQPLVVQEAWIDDASAEDIAWLLDRLRQAGALDVACQSLLMKKGRAGVAVTALVSTEQAPQLRRTWFEAGPSIGLRERQQGRWLLPRRAGTLSTPWGVLTAKQVRRPDGHCTVKPEADALQRLSQASGCSVADLRAAAQAASFESEEPWTW	not soluble
MAHHHHHHMTVYHEQFALVPPQYPRRAVQEAENHRALAALYELVENAIATAENYVAYTEGRLVPLSSRGSELLAASKELRERYRHEAPCGWTEQKVMQHCEQEVTVEEMAELLLRPPLDVSGIRSILRTLQETRTQLPRGRFLLMRDNLSALKPHQPPDLVRDLSDVCGALYEIQYVDLMAELRAELSELDGERDKVQEKLKDAIHLYERALAKGDVVEVERAHRQLIAARYEFVNACAKLMHQILGEDMASQESGFAAEMEALRRDATDSISRFVEALHERRQAFRNDLHNCDKKRLEEDGNHQKCLEAYNAEERETAAQIGQIVEQKKKLVEELRQKARELRDITLKQKEMVEAQVRAKRAEEERVTAYNEFVNMEEQQKHRLLRCLAYFDGMEELTADLRSYVDEMVTRIPQQNLRQVIDQLNDIEAEAFMNAYSGFVSCCGELTVKKMHRLDTLERQARLLEHNRDSAMESLDPNMSNYRLELDDIIEQMKGVSGVINALNATQDAGEQLFQSVEKGVLAKYERSGTPFVHPLQEYGIKSVEERNRFVDRSMHYVENEERKVFEKRNVLNRMRQAVEEDEAATESAIRNLPAAPEY	soluble
MSQMSPGQARVVDPILSTHARGYRQSTLIGKKLFPVAPVAQYGGKILTFGKEAFRLYNTKRAPGANTKRIDFGYEGDPYSIVPSALEAKVPRELMRDASQVPGIDLGARSVNTVLRIMALAHEHECAQIALDPAKYNADHKVKLVGSARWTSPDSDPTKDVETAKEAIADSIGMEPNRLMLSRKALSACKYHPKLIERVKYTRAESITIDMLKALWEVEEIVVGTARVATGANDSFGDVWGPDVWLGYVSDNPDPSVEEPSFGYTYQIEGHPLVEVPYWDNNAKSWIYGVSDDNTPALSGMLAGYLIEDAGLPAALEHHHHHH	soluble
MMKQHLDALKDSKYCPLWHDQDIRPETLPALSADTSCELLIVGGGFTGLWGALQAKERQPDADIILIEKTTISDGASGRNGGFLSSSLAHGETNTDHQFPGEADKLHQLGQQNLKEFIETLEHYNIDARYEKVGETSVATDQASVDALRATYESEKAQGEDVVWFNQEEMQAQVNSPTYLAGLWYRGGQDGVVDPARLCWGLKRVILELGVRIYEETPLTSLKKLGQDKMEVTCSDVKIISDKVLMATNAYRNPIGQARRSIIPVWDYQIATQPLSQEQLDSIGWHKSRHALSNHANMFHYYRFTKDNRITWGGGGAVRYYFNNGIDQSYADIPERFAQLSEEFFETFPQLKGIKFTHRWSGIIATSTRFCVVPGVAYDGRVAWAIGYTGLGVGASRFGARIGIELLGYKPSEILDMQFVKKKPIPWAPEPLRWIGVYLTHKALEKADANGGKRGLWLKLLDMLNLGFTCLEHHHHHH	not soluble
